The record followed here is patent publication EP4176934A1, “LIPIDIZED COCAINE- AND AMPHETAMINE-REGULATED TRANSCRIPT PEPTIDE ANALOGUES AS ANTI-OBESITY AND NEUROPROTECTIVE AGENTS” (Ustav organicke chemie a biochemie AV CR, v.v.i., priority 2021, dated 2023).

The nature of data set [1]: Stability in rat plasma measured by ELISA. It is filed as in vitro ADME. The conditions noted are these: 100 ng.ml^-1, 37 °C, 96 hours, EDTA plasma, compared to CART 2S-S. How it is done:
Blank rat pooled EDTA plasma was conditioned in an incubator at 37 °C. Plasma was preheated to reach required temperature and then it was spiked with a solution of CART 2S-S and palm-CART analogues (dissolved in aqueous 0.5% formic acid) to a final concentration 100 ng.ml^-1. Duplicates were taken for ELISA analysis, sampling volume was 50 µL. Samples were immediately transferred to -20 °C.
ELISA kit for CARTp (MyBioSource, San Diego, CA, USA) was used in accordance with manufacturer's directions. In addition, external calibration using palm-CART was used. The rat plasma was applied for the calibration to comprise specific influence of different matrices on the immunoanalysis output.
(ELISA stands for enzyme-linked immunosorbent assay.)

The target of data set [2] is CARTp binding site in PC12 cells (prospective CARTp receptor) (rat). The data set can be described thus: displacement of 125I-CART(61-102) from PC12 cells, relative to CART(61-102). For orientation: In a radioligand displacement assay an active substance lowers the binding of a labelled ligand.
Data set [3] shares this target. The data set can be described thus: displacement of 125I-CART(61-102) from PC12 cells; range told of the group, this end tied by Table 2.
Data set [4] shares this target. The data set is described as follows: displacement of 125I-CART(61-102) from PC12 cells, Cheng-Prusoff.
For data set [5] the target is unchanged. The data set is described as follows: radioligand binding on PC12 cells, 10^-10 M tracer.
Data set [6] shares this target. The data set is described as follows: Kd of the radioligand on PC12 cells, used in the Cheng-Prusoff equation; how it was measured is not stated.

Bridge positions count the residues as written; N and C are the ends. Square brackets hold non-standard residues; d marks the D form. Ends that are not written are not given here. * marks the point of attachment. Palmitoyl = CCCCCCCCCCCCCCCC(=O)*; Myristoyl = CCCCCCCCCCCCCC(=O)*; Nle = CCCC[C@H](N)C(=O)O; Octanoyl = CCCCCCCC(=O)*

As to “Palmitoyl-KYGQVP[Nle]ADAGEQCAVRKGARIGKLADCPRGTSCNSFLLKCL (disulfide 14-34, 28-41) [Palm-CART]”, the “stability in rat plasma” value in data set [1] was “higher stability”.
Turning to Palm-CART [74-94, 86-101] (peptide), the % binding CART(61-102) in data set [2] is 0.85%. Further, the Ki turned out to be 1000 nM in data set [3] and 1090 nM in data set [4].
Molecule Octanoyl-KYGQVP[Nle]ADAGEQCAVRKGARIGKLADCPRGTSCNSFLLKCL (disulfide 14-34, 28-41) [Oct-CART] registered a % binding CART(61-102) in data set [2] of 12%. For the same molecule, in data set [4], the Ki was 76.1 nM.
Palmitoyl-KYGQVP[Nle]ADAGEQCAVRKGARIGKLADCPRGTSCNSFLLKCL (disulfide 14-34, 28-41) [Palm-CART] displayed a % binding CART(61-102) in data set [2] of 652%. For the same molecule, the Ki in data set [3] stood at 1 nM; in data set [4], 1.43 nM.
In turn, KYGQVPMCDAGEQCAVRKGARIGKLCDCPRGTSCNSFLLKCL (disulfide 14-34, 8-26, 28-41) [CART(61-102)] had a % binding CART(61-102) in data set [2] of 100%. In data set [4], this molecule gave a Ki of 9.33 nM.

B1: 125I-CART(61-102) (peptide)
peptide: KYGQVPMCDAGEQCAVRKGARIGKLCDCPRGTSCNSFLLKCL
modifications: disulfide 14-34, 8-26, 28-41; ends not checked; also: monoiodinated with 125I, residue not given here
As for B1, the total binding, % of the radioactivity added in data set [5] was in the range of 3 to 8%. Moreover, in data set [6], the Kd amounted to 1.49 nM.
Take KYGQVP[Nle]ADAGEQCAVRKGARIGKLADCPRGTSCNSFLLKCL (disulfide 14-34, 28-41) [CART 2S-S]: in data set [2], the % binding CART(61-102) was determined as 3.5%. The molecule also showed a Ki in data set [4] of 261 nM.
The corresponding values for Myristoyl-KYGQVP[Nle]ADAGEQCAVRKGARIGKLADCPRGTSCNSFLLKCL (disulfide 14-34, 28-41) [Myr-CART] are 78% and 12.1 nM.

In general, Ki refers to the dissociation constant of the complex between target and ligand, obtained from inhibition or displacement. One may read the Kd as a measure of binding affinity in units of concentration. High values mean a looser complex, low ones a tighter complex.
